Measured values: US11733246B2, “Compositions, imaging, and therapeutic methods targeting folate receptor 1 (FOLR1)” (Indi Molecular, Inc., priority 2020, dated 2023)
Numbered stars: 1 amine (or outer) side, 2 acyl side, 3 side chain; on linkers, the order of the positions; unused ones are H or OH. Bridge positions count the residues as written; N and C are the ends. Square brackets hold non-standard residues; d marks the D form. Triazole bridges read from a SMILES are 1,4-linked. Side chains are listed from the residue outwards. Peptide text beside a SMILES is read from it. * marks the point of attachment. ξ: configuration not given here. DOTA = O=C(O)CN1CCN(CC(=O)O)CCN(CC(=O)*)CCN(CC(=O)O)CC1; Pteroyl = Nc1nc2ncc(CNc3ccc(C(=O)*)cc3)nc2c(=O)[nH]1; Biotin = O=C1N[C@H]2[C@H](CS[C@H]2CCCCC(=O)*)N1; Butanoyl(4-(4-I-phenyl)) = O=C(CCCc1ccc(I)cc1)*; Butanoyl(4-(4-MePh)) = Cc1ccc(CCCC(=O)*)cc1; dLys(N3) = [N-]=[N+]=NCCCC[C@@H](N)C(=O)O; Lys(N3) = [N-]=[N+]=NCCCC[C@H](N)C(=O)O; γGlu = O=C(O)[C@H](CCC(=O)[*:2])N[*:1]; AEEEA = NCCOCCOCCOCC(=O)O; Pra = C#CC[C@H](N)C(=O)O; ξPra = C#CCC(N)C(=O)O; X2 = NOCC(=O)*

How the values were obtained:
OVCAR3 FOLR1+ cells = assay: Flow cytometry binding to FOLR1 (+) cells; assay type: cell-based, human; settings: OVCAR3 vs PC-3, flow cytometry
Method: Both the kyeet (SEQ ID NO:9) and hshta (SEQ ID NO:6)-derived biligands were tested by flow cytometry for binding to FOLR1 (+) and FOLR1 (−) cell lines (FIGS. 6 and 7). The human ovarian adenocarcinoma-derived cell line OVCAR3 has robust FOLR1 expression and was selected as the FOLR1 (+) cell line. The human prostate adenocarcinoma-derived cell line PC-3 was selected as a FOLR1 (−) cell line.
Competition at the cellular level was also probed.
Increasing the serum-bound fraction of the peptide may decrease first pass removal of the heterobiligand, and drive compound retention of tumor over kidney. Constructs bearing the known albumin binder 4-methylphenyl butyric acid (4-MPBA) were synthesized. These compounds were evaluated in vitro to verify binding fidelity to FOLR1. The modified heterobiligands were incubated at 400 nM with OVCAR3 and PC-3 cells for 20 minutes at 37° C. in complete media containing 20% FBS. They both bind to OVCAR3 FOLR1+ cells with similar binding affinities as the original heterobiligand studied (FIG. 14). […] Similar activity of these heterobiligands is anticipated in vivo.

[1] = Plasma protein binding (equilibrium dialysis), human; assay type: in vitro ADME
Method: (§1) HTD 96 a/b regenerated cellulose membrane strips with mass cutoff of 12-14 kDa were soaked in ultra-pure water at room temperature for 1 hour. Each swelled membrane was then soaked in 20:80 ethanol:water for 20 minutes.
(§2) Just prior to the experiment, the membranes were re-soaked in ultra-pure water. Plasma was prepared by thawing under cold water. The plasma was centrifuged to remove any clots and pH was adjusted to 7.0-8.0. Test articles and control compounds were diluted to 2 μM. The dialysis device was loaded by transferring 150 μL of the test article (in triplicate) to the donor side. The dialysis device was placed in a humidified incubator at 37° C. with 5% CO2 in a shaking platform that rotated slowly for 4 hours. After incubation, 50 μL of the supernatant was taken from both sides and analyzed by LC-MS/MS.
(§3) To optimize the albumin binding potential of the heterobiligand, a plasma protein binding (PPB) experiment was performed. This experiment measured the amount of test article bound and free after equilibrating with plasma. Compound #6305 (folate-hshta-Lys(MPBA)-Gly-Phe-Lys(DOTA) (SEQ ID NO:6)), which contains the MPBA albumin binder, was 96.26% bound to mouse plasma and 98.34% bound to human plasma. […] In mouse and human plasmas 99.6% and 99.5% was bound, respectively.

[2] = Plasma protein binding (equilibrium dialysis), mouse; assay type: in vitro ADME, CD-1 mouse
Method: as §1, §2, §3

human recombinant NEP = human recombinant NEP (Homo sapiens, UniProt P08473); assay type: biochemical
Chain of human recombinant NEP (P08473 whole entry): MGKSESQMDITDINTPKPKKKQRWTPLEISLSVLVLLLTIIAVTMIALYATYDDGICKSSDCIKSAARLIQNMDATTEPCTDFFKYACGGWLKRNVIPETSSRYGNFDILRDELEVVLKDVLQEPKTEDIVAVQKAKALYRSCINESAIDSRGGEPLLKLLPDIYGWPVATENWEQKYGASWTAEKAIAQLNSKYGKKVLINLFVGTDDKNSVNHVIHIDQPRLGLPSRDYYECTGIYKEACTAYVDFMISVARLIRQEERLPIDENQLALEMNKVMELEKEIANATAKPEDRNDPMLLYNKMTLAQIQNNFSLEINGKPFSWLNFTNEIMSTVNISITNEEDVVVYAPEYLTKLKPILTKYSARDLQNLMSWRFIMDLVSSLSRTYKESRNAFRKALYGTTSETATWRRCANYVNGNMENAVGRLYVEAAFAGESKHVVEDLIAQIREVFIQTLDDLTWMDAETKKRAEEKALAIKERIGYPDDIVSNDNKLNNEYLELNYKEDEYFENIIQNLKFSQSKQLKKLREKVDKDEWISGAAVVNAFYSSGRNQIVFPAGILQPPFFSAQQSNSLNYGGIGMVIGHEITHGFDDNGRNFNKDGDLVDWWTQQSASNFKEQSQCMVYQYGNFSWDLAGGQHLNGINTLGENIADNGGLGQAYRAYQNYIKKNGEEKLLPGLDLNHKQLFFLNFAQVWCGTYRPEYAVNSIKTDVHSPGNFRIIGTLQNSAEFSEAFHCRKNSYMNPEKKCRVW
Method: In order to test the susceptibility of GFK and MVK linkers to NEP-mediated cleavage, the peptide (Folate-hshta-Lys(MPBA)-Gly-Phe-Lys(DOTA) (SEQ ID NO:6)) was incubated with human recombinant NEP and analyzed the solution for the presence of cleaved adducts. MALDI was utilized to monitor the cleavage of a PCC heterobiligand that contains a NEP protease recognizable sequence (G-F-K). The PCC concentration was constant and the NEP concentration was titrated down from 10 nM to 1 nM, 0.1 nM, 0.01 nM, and no NEP. The NEP-mediated cleaved adduct was identified by mass. 10 μM PCC containing the GFK linker was combined with varying amounts of NEP. […] Below 0.1 nM no cleavage was observed. • Folate-hshta-Lys(MPBA)-Gly-Phe-Lys(DOTA) (SEQ ID NO:6) • Molecular weight 2231.42
The NEP-mediated cleavage was also monitored by HPLC. In agreement with the MALDI spectra, the HPLC chromatograms show depletion of the parent brush-border heterobiligand (retention time 17.1 minutes), dose-dependent on the amount of NEP spiked into the sample (10 nM, 1 nM, 0.1 nM, 0.01 nM, and no NEP). An appearance of a new peak (retention time 16.5 minutes) in concert with the depletion of the starting material is presumed to be the cleaved folate-containing peptide.
In order to test the specificity of NEP, a non-cleavable linker (PEG3) was also assayed.
To reduce the radioactive dose to the kidney, Indi ^177Lu-7327 was constructed to incorporate a GFK linker that is susceptible to cleavage by enzymes found predominately in the kidney's brush border. These enzymes cleave off the radionuclide-chelator complex, which is quickly eliminated by the kidney for excretion in the urine. The zinc metalloprotease neprilysin (NEP) is expressed with high abundance in the kidney. […] To confirm NEP-mediated cleavage of the GFK linker in Indi 7327, the peptide was incubated with recombinant human NEP at 37° C. for 1 h and analyzed by matrix-assisted laser desorption/ionization mass spectrometry (MALDI-MS) for the evolution of cleaved adducts (FIG. 42). […] The expected cleaved adduct (mass: 1283.16 m/z) appears in the samples containing 10, 1.0, and 0.1 nM NEP. […] Below 0.1 nM NEP, no cleavage was observed. In addition to confirming the selectivity of NEP for the GFK linker, it is also important to note that the remaining portions of the Indi 7327 were impervious to the enzyme.

SMILES	selectivity for FOLR1 (+) cells over FOLR1 (−) cells (OVCAR3 FOLR1+ cells)	recovery at 4 h, 2 μM ([1]; human) [%]	fraction unbound at 4 h, 2 μM ([1]; human, plasma)	recovery at 4 h, 2 μM ([2]; CD-1, mouse) [%]	fraction unbound at 4 h, 2 μM ([2]; CD-1, mouse, plasma)	in vitro Assay Data (NEP assay) (human recombinant NEP)	further results
C[C@H](O)[C@H]1NC(=O)[C@@H](Cc2ccc(O)cc2)NC(=O)[C@@H](CCCNC(=N)N)NC(=O)[C@@H](CCC(=O)O)NC(=O)[C@@H](CC(=O)O)NC(=O)[C@@H](NC(=O)[C@H](Cc2cn(CCOCCOCCOCCNC(=O)CC[C@H](NC(=O)c3ccc(NCc4cnc5nc(N)[nH]c(=O)c5n4)cc3)C(=O)O)nn2)NC(=O)CCOCCOCCOCCOCCOCCOCCOCCOCCOCCOCCNC(=O)CCOCCOCCOCCOCCOCCOCCOCCOCCOCCOCCNC(=O)CCCC[C@@H]2SC[C@@H]3NC(=O)N[C@@H]32)Cc2cn(nn2)CCCC[C@@H](C(N)=O)NC1=O [Folate-deryt]	excellent selectivity for FOLR1 (+) cells						
C[C@@H](O)[C@@H]1NC(=O)[C@H](CCCCN)NC(=O)[C@@H](Cc2c[nH]c3ccccc23)NC(=O)[C@H](Cc2ccccc2)NC(=O)[C@@H](NC(=O)[C@H](N)Cc2ccccc2)CSSC[C@@H](C(=O)N[C@H](CO)[C@@H](C)O)NC1=O [Octreotide Acetate, reference compound]							recovery at 4 h, 2 μM ([1]; Hu (human plasma), recovery in plasma protein binding assay, read-out: (% Recovery)): 84.3%; fraction unbound at 4 h, 2 μM ([1]; Hu (human plasma), read-out: Plasma % Bound): 0.406; recovery at 4 h, 2 μM ([2]; Mu (CD-1 mouse plasma), recovery in plasma protein binding assay, read-out: (% Recovery)): 84.5%; fraction unbound at 4 h, 2 μM ([2]; Mu (CD-1 mouse plasma), read-out: Plasma % Bound): 0.376
C[C@H](O)[C@H]1NC(=O)[C@@H](Cc2c[nH]cn2)NC(=O)[C@@H](CO)NC(=O)[C@@H](Cc2c[nH]cn2)NC(=O)[C@@H](NC(=O)[C@H](Cc2cn(CCOCCOCCOCCNC(=O)CC[C@H](NC(=O)c3ccc(NCc4cnc5nc(N)[nH]c(=O)c5n4)cc3)C(=O)O)nn2)NC(=O)CCOCCOCCOCCOCCOCCOCCOCCOCCOCCOCCNC(=O)CCOCCOCCOCCOCCOCCOCCOCCOCCOCCOCCNC(=O)CCCC[C@@H]2SC[C@@H]3NC(=O)N[C@@H]32)Cc2cn(nn2)CCCC[C@@H](C(N)=O)NC(=O)[C@@H](C)NC1=O [Tz heterobiligand]	high selectivity for FOLR1 (+) cells						
C[C@@H]1NC(=O)[C@H]([C@@H](C)O)NC(=O)[C@H](Cc2cnc[nH]2)NC(=O)[C@H](CO)NC(=O)[C@H](Cc2cnc[nH]2)NC(=O)C(NC(=O)CC[C@H](NC(=O)c2ccc(NCc3cnc4nc(N)[nH]c(=O)c4n3)cc2)C(=O)O)Cc2cn(nn2)CCCC[C@H](C(=O)NCCOCCOCCOCC(=O)N[C@H](CCCCNC(=O)CN2CCN(CC(=O)O)CCN(CC(=O)O)CCN(CC(=O)O)CC2)C(N)=O)NC1=O (some centres unmarked) [compound 1189, Fol-hshta-PEG3-Lys(DOTA)] ({Pteroyl-γGlu}-[ξPra]HSHTA[dLys(N3)][AEEEA][dK](DOTA)-NH2; triazole 1-7)		102	0.54	97.4	0.705	resistant to NEP	
Cc1ccc(CCCC(=O)NCCCC[C@@H](NC(=O)[C@H]2CCCCn3cc(nn3)CC(NC(=O)CC[C@H](NC(=O)c3ccc(NCc4cnc5nc(N)[nH]c(=O)c5n4)cc3)C(=O)O)C(=O)N[C@@H](Cc3cnc[nH]3)C(=O)N[C@@H](CO)C(=O)N[C@@H](Cc3cnc[nH]3)C(=O)N[C@@H]([C@@H](C)O)C(=O)N[C@@H](C)C(=O)N2)C(=O)NCC(=O)N[C@H](Cc2ccccc2)C(=O)N[C@H](CCCCNC(=O)COCCOCCOCCNC(=O)CN2CCN(CC(=O)O)CCN(CC(=O)O)CCN(CC(=O)O)CC2)C(=O)O)cc1 (stereo partly drawn) [compound 3302, Fol-hshta-Lys(4-MPBA)-Gly-Phe-Lys(PEG3-DOTA)] ({Pteroyl-γGlu}-[ξPra]HSHTA[dLys(N3)][dK](Butanoyl(4-(4-MePh)))G[dF][dK]([AEEEA-DOTA])-OH; triazole 1-7)		88.1	0.051	103	0.035	Cleavage of -G-F-K-	
Cc1ccc(CCCC(=O)NCCCC[C@H](NC(=O)[C@@H]2CCCCn3cc(nn3)C[C@H](NC(=O)CC[C@H](NC(=O)c3ccc(NCc4cnc5nc(N)[nH]c(=O)c5n4)cc3)C(=O)O)C(=O)N[C@H](Cc3cnc[nH]3)C(=O)N[C@H](CO)C(=O)N[C@H](Cc3cnc[nH]3)C(=O)N[C@H]([C@H](C)O)C(=O)N[C@H](C)C(=O)N2)C(=O)NCC(=O)N[C@@H](Cc2ccccc2)C(=O)N[C@@H](CCCCNC(=O)CON)C(=O)O)cc1 [compound 3304, Fol-hshta-Lys(4-MPBA)-Gly-Phe-Lys(AO)] ({Pteroyl-γGlu}-[Pra][dH][dS][dH][dT][dA][Lys(N3)]K(Butanoyl(4-(4-MePh)))GFK(X2)-OH; triazole 1-7)						Cleavage of -G-F-K-	
C[C@@H]1NC(=O)[C@H]([C@@H](C)O)NC(=O)[C@H](Cc2cnc[nH]2)NC(=O)[C@H](CO)NC(=O)[C@H](Cc2cnc[nH]2)NC(=O)C(NC(=O)CC[C@H](NC(=O)c2ccc(NCc3cnc4nc(N)[nH]c(=O)c4n3)cc2)C(=O)O)Cc2cn(nn2)CCCC[C@H](C(=O)NCCOCCOCCOCC(=O)NCC(=O)N[C@H](Cc2ccccc2)C(=O)N[C@H](CCCCNC(=O)CN2CCN(CC(=O)O)CCN(CC(=O)O)CCN(CC(=O)O)CC2)C(=O)O)NC1=O (stereo partly drawn) [compound 6307, Fol-hshta-PEG3-Gly-Phe-Lys(DOTA)] ({Pteroyl-γGlu}-[ξPra]HSHTA[dLys(N3)][AEEEA]G[dF][dK](DOTA)-OH; triazole 1-7)		81.6	0.587	68.9	0.594	Cleavage of -G-F-K-	
CSCC[C@H](NC(=O)[C@H](CCCCNC(=O)CCCc1ccc(I)cc1)NC(=O)[C@@H]1CCCCn2cc(nn2)C[C@H](NC(=O)CC[C@H](NC(=O)c2ccc(NCc3cnc4nc(N)[nH]c(=O)c4n3)cc2)C(=O)O)C(=O)N[C@H](Cc2c[nH]cn2)C(=O)N[C@H](CO)C(=O)N[C@H](Cc2c[nH]cn2)C(=O)N[C@H]([C@H](C)O)C(=O)N[C@H](C)C(=O)N1)C(=O)N[C@H](C(=O)N[C@@H](CCCCNC(=O)CN1CCN(CC(=O)O)CCN(CC(=O)O)CCN(CC(=O)O)CC1)C(=O)O)C(C)C [compound #1306, Fol-hshta-Lys(4-IPBA)-Met-Val-Lys(DOTA)] ({Pteroyl-γGlu}-[Pra][dH][dS][dH][dT][dA][Lys(N3)]K(Butanoyl(4-(4-I-phenyl)))MVK(DOTA)-OH; triazole 1-7)						Cleavage of -M-V-K-	recovery [1]: 84.8%; recovery [2]: 82.7%
C[C@H](O)[C@H]1NC(=O)[C@@H](CCC(=O)O)NC(=O)[C@@H](CCC(=O)O)NC(=O)[C@@H](Cc2ccc(O)cc2)NC(=O)[C@@H](CCCCN)NC(=O)[C@@H](NC(=O)COCCOCCOCCNC(=O)CCCC[C@@H]2SC[C@@H]3NC(=O)N[C@@H]32)Cc2cn(nn2)CCCC[C@@H](C(N)=O)NC1=O [kyeet] ({Biotin-AEEEA}-[Pra][dK][dY][dE][dE][dT][Lys(N3)]-NH2; triazole 1-7)	slight binding selectivity for FOLR1 (+) cells						
